Among the data in PMC5869024 are Kd and dH values, retold here.

pKd: −log10 of the molar value. Read-outs that look alike come from different tables or passages of the source.

Test [1] addresses CXCR1 extracellular loop peptide two linked extracellular loops (Homo sapiens) (UniProt P25024). The following applies: cited from earlier work.
In test [2] the target is ND-CXCR1(1–38) (UniProt P25024). Briefly: ITC. Background: Isothermal titration calorimetry measures the heat released or taken up as one component is titrated into another.
For test [3], the target named is 1TM-CXCR1(1–72) reconstituted in nanodiscs (UniProt P25024). As to the kind of experiment: ITC.
Test [4] concerns the target ND-CXCR1(1–38) (UniProt P25024). Briefly: ITC. This is another data set of the same source.

Chain of ND-CXCR1(1–38) (P25024 1-38 C30S): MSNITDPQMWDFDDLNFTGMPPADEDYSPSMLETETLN
Chain of 1TM-CXCR1(1–72) reconstituted in nanodiscs (P25024 1-72 C30S): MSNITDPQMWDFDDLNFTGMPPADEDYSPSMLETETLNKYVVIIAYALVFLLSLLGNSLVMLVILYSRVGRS
Chain of IL-8 (P10145 28-99): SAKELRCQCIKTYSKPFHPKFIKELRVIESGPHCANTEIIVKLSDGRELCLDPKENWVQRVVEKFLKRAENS
Chain of CXCR1 extracellular loop peptide two linked extracellular loops (Homo sapiens) (P25024 whole entry): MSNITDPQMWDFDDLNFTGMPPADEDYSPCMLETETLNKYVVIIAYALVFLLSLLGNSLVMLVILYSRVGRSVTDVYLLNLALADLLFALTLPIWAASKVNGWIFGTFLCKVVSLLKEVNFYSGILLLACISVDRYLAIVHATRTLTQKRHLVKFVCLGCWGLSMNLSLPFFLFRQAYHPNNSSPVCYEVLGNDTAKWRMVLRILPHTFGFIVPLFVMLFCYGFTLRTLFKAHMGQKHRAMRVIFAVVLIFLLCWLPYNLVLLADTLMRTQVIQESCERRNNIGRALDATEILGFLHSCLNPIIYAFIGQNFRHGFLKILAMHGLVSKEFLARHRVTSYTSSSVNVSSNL

In the case of IL-8 (from UniProt P10145), the pKd (usually the Kd on a negative log10 scale, so that one unit is a factor of ten) in test [1] is 6.30.

On to “monomeric Interleukin-8 IL-8(1–66) (ligand)”, for which the pKd is 5.49 in the test with ND-CXCR1(1–38) [2], 4.90 in test [3] and 5.46 with ND-CXCR1(1–38) [4]. Further, the dH in test [3] is -3.1 kcal/mol; with ND-CXCR1(1–38) [4], -3.2 kcal/mol.
